The results in this text go back to the Immune Epitope Database (IEDB).

One assay addresses HLA-A*02:02. As to the kind of experiment: IEDB peptide-MHC binding, purified MHC/competitive/radioactivity; ≥ and ≤ were set here for values at or beyond the usual limits of such assays.
The next assay has as its target HLA-A*02:03. Described as above.
In a further assay the target is HLA-A*02:06. Described as above.
The target in assay [1] is HLA-A*68:02. The assay can be described thus: IEDB peptide-MHC binding, cellular MHC/competitive/fluorescence; ≥ and ≤ were set here for values at or beyond the usual limits of such assays.
Assay [2] concerns the target HLA-A*68:02. As to the kind of experiment: IEDB peptide-MHC binding, purified MHC/competitive/radioactivity; ≥ and ≤ were set here for values at or beyond the usual limits of such assays.
For assay [3], the target named is HLA-A*02:01. The assay can be described thus: IEDB peptide-MHC binding, cellular MHC/competitive/fluorescence; ≥ and ≤ were set here for values at or beyond the usual limits of such assays.
The target in assay [4] is HLA-A*02:01. The assay can be described thus: IEDB peptide-MHC binding, purified MHC/competitive/radioactivity; ≥ and ≤ were set here for values at or beyond the usual limits of such assays. The conditions noted are these: source organism: Influenza A virus.
The mark [5] stands for this setting: source organism: Vaccinia virus WR.
[6] abbreviates: source organism: Influenza A virus.
Setting [7] is: source organism: Hepacivirus hominis.
Where [8] appears, read: source organism: Mammarenavirus choriomeningitidis.
Where [9] appears, read: source organism: Mammarenavirus brazilense.

In general, IC50 refers to the concentration needed to halve the response being measured. Turning to ALCKVTVPT, the half-inhibitory concentration (IC50) with HLA-A*02:02 (setting [5]) was 110 nM; with HLA-A*02:03 (setting [5]), 130 nM; with HLA-A*02:06 (setting [5]) it was 210 nM; with HLA-A*68:02 [1] (setting [5]) it was at least 70000 nM.

In turn, ALQLLLEV showed an IC50 in the assay with HLA-A*68:02 [1] (setting [6]) of at least 70000 nM.

As for AMDSNTLEL, the IC50 with HLA-A*02:02 (setting [6]) is 254 nM; in the assay with HLA-A*02:03 (setting [6]), 524 nM; with HLA-A*02:06 (setting [6]), 1950 nM; with HLA-A*68:02 [1] (setting [6]), at least 70000 nM.

In the case of AMWLLLLSI, the IC50 is 357 nM with HLA-A*02:02 (source organism: SARS-CoV1), 205 nM with HLA-A*02:03 (source organism: SARS-CoV1), 268 nM with HLA-A*02:06 (source organism: SARS-CoV1) and 27700 nM with HLA-A*68:02 [1] (source organism: SARS-CoV1).

Consider FVNFNSVKNL, for which the IC50 in the assay with HLA-A*02:02 (setting [5]) was found to be 2020 nM; with HLA-A*02:03 (setting [5]) it was 318 nM; with HLA-A*02:06 (setting [5]), 2200 nM; with HLA-A*68:02 [2] (setting [5]), 121 nM; in the assay with HLA-A*02:01 [3] (setting [5]) it was 8720 nM.

Take GLISLILQI: the IC50 stood at 27 nM with HLA-A*02:02 (setting [6]), 5.4 nM with HLA-A*02:03 (setting [6]), 205 nM with HLA-A*02:06 (setting [6]) and 12400 nM with HLA-A*68:02 [1] (setting [6]).

On to GLIYNRMGA, for which the IC50 with HLA-A*02:01 [3] (setting [6]) is 16700 nM; in the assay with HLA-A*68:02 [1] (setting [6]), at least 70000 nM.

On to IAIFNNRNLA, for which the IC50 with HLA-A*02:02 (setting [5]) amounted to 3360 nM; with HLA-A*02:03 (setting [5]) it was 1480 nM; in the assay with HLA-A*02:06 (setting [5]) it was 890 nM; in the assay with HLA-A*68:02 [2] (setting [5]), 1490 nM; with HLA-A*02:01 [3] (setting [5]), 6300 nM.

For ILGFVFTL, the IC50 with HLA-A*02:01 [4] is 1.2 nM; with HLA-A*68:02 [1] (setting [6]), at least 70000 nM.

ILGFVFTLTV had an IC50 with HLA-A*68:02 [1] (setting [6]) of 5020 nM.

For ILKDPRIASI, the IC50 with HLA-A*02:02 (setting [5]) was 3160 nM; with HLA-A*02:03 (setting [5]) it was 1030 nM; in the assay with HLA-A*02:06 (setting [5]), 4000 nM; in the assay with HLA-A*68:02 [2] (setting [5]) it was 4520 nM; in the assay with HLA-A*02:01 [3] (setting [5]) it was 5030 nM.

ITRLEVIGLT: the IC50 with HLA-A*02:02 (setting [5]) came out at 2210 nM; with HLA-A*02:03 (setting [5]) it was 219 nM; in the assay with HLA-A*02:06 (setting [5]), 967 nM; with HLA-A*68:02 [2] (setting [5]) it was 1180 nM; with HLA-A*02:01 [3] (setting [5]), 6470 nM.

Regarding IVFGIYKDNL, the 50% inhibitory concentration (IC50) with HLA-A*02:02 (setting [5]) is 187 nM; with HLA-A*02:03 (setting [5]), 792 nM; with HLA-A*02:06 (setting [5]) it was 48 nM; with HLA-A*68:02 [2] (setting [5]), 628 nM; with HLA-A*02:01 [3] (setting [5]) it was 5460 nM.

On to KINEMVDELV, for which the IC50 amounted to 587 nM with HLA-A*02:02 (setting [5]); 492 nM with HLA-A*02:03 (setting [5]); 3060 nM with HLA-A*02:06 (setting [5]); 4960 nM with HLA-A*68:02 [2] (setting [5]); 26400 nM with HLA-A*02:01 [3] (setting [5]).

As for KTPDYPLIDI, the IC50 with HLA-A*02:02 (setting [5]) came out at 1120 nM; with HLA-A*02:03 (setting [5]), 249 nM; with HLA-A*02:06 (setting [5]), 725 nM; with HLA-A*68:02 [2] (setting [5]), 1250 nM; with HLA-A*02:01 [3] (setting [5]) it was 5550 nM.

On to KTVKNVDII, for which the IC50 with HLA-A*02:02 (setting [5]) came to 607 nM; with HLA-A*02:03 (setting [5]) it was 1790 nM; with HLA-A*02:06 (setting [5]), 698 nM; in the assay with HLA-A*68:02 [2] (setting [5]) it was 1160 nM; with HLA-A*02:01 [3] (setting [5]), 8730 nM.

For the sequence KVDDTFYYV, the IC50 in the assay with HLA-A*68:02 [1] (setting [5]) was found to be 45500 nM.

In the case of LITLILSNKL, the IC50 stood at 225 nM with HLA-A*02:02 (setting [5]); 293 nM with HLA-A*02:03 (setting [5]); 633 nM with HLA-A*02:06 (setting [5]); 1490 nM with HLA-A*68:02 [2] (setting [5]); 7660 nM with HLA-A*02:01 [3] (setting [5]).

For the sequence LLGCIITSL, the IC50 in the assay with HLA-A*02:02 (setting [7]) was 79 nM; with HLA-A*02:03 (setting [7]) it was 121 nM; with HLA-A*02:06 (setting [7]) it was 3130 nM; with HLA-A*68:02 [1] (setting [7]), at least 70000 nM.

For LMYKGLPWNV, the IC50 stood at 1.8 nM with HLA-A*02:02 (source organism: SARS-CoV1), 5.3 nM in the assay with HLA-A*02:03 (source organism: SARS-CoV1), 37 nM in the assay with HLA-A*02:06 (source organism: SARS-CoV1) and 5400 nM with HLA-A*68:02 [1] (source organism: SARS-CoV1).

Consider LNMFVSDQV, for which the IC50 with HLA-A*02:02 (setting [8]) is 18 nM; in the assay with HLA-A*02:03 (setting [8]), 880 nM; with HLA-A*02:06 (setting [8]), 4810 nM; with HLA-A*68:02 [2] (setting [8]), 7 nM; with HLA-A*02:01 [3] (setting [8]), 5760 nM.

As for LSNCVHPAV, the IC50 is 427 nM in the assay with HLA-A*02:02 (setting [9]); 1100 nM with HLA-A*02:03 (setting [9]); 461 nM in the assay with HLA-A*02:06 (setting [9]); 682 nM in the assay with HLA-A*68:02 [2] (setting [9]); 12200 nM with HLA-A*02:01 [3] (setting [9]).

Turning to LTGTFVTAFI, the IC50 was 672 nM in the assay with HLA-A*02:02 (setting [5]); 596 nM with HLA-A*02:03 (setting [5]); 413 nM in the assay with HLA-A*02:06 (setting [5]); 109 nM in the assay with HLA-A*68:02 [2] (setting [5]); 5050 nM in the assay with HLA-A*02:01 [3] (setting [5]).

Regarding LTSVDIETAI, the IC50 with HLA-A*02:02 (setting [5]) worked out at 509 nM; with HLA-A*02:03 (setting [5]) it was 2150 nM; with HLA-A*02:06 (setting [5]), 3130 nM; with HLA-A*68:02 [2] (setting [5]) it was 221 nM; with HLA-A*02:01 [3] (setting [5]), 6730 nM.

In the case of LVAEHRFENM, the IC50 with HLA-A*02:02 (setting [5]) was 2050 nM; in the assay with HLA-A*02:03 (setting [5]), 462 nM; with HLA-A*02:06 (setting [5]), 723 nM; with HLA-A*68:02 [2] (setting [5]), 1400 nM; with HLA-A*02:01 [3] (setting [5]), at least 70000 nM.

As to LVFNSISARA, the IC50 with HLA-A*02:02 (setting [5]) turned out to be 1270 nM; with HLA-A*02:03 (setting [5]), 254 nM; with HLA-A*02:06 (setting [5]) it was 702 nM; in the assay with HLA-A*68:02 [2] (setting [5]), 168 nM; with HLA-A*02:01 [3] (setting [5]) it was 15900 nM.

As for LVKESMASL, the IC50 came out at 1120 nM with HLA-A*02:02 (setting [5]); 9.5 nM in the assay with HLA-A*02:03 (setting [5]); 136 nM with HLA-A*02:06 (setting [5]); 2070 nM in the assay with HLA-A*68:02 [2] (setting [5]); 14300 nM with HLA-A*02:01 [3] (setting [5]).
